Test results as given in US20150344570A1 (published 2015).

T1: FcγRIIb extracellular domain with C-terminal His tag (human, UniProt P31994 43-217)
T1 construct: extracellular domain; also called 2b; FcgRIIb
T1 sequence (looked up): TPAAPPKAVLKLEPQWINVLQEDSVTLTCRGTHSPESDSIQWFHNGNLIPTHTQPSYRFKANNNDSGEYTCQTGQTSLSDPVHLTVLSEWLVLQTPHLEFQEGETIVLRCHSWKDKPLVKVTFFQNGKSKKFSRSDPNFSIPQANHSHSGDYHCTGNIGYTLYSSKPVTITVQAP

T2: FcγRIIa H (FcgRIIa type H, His at position 131), extracellular domain with C-terminal His tag (human, UniProt P12318 34-217)
T2 construct: extracellular domain; also called 2aH; FcgRIIa H; not shown: His tag at the C terminus
T2 sequence (looked up): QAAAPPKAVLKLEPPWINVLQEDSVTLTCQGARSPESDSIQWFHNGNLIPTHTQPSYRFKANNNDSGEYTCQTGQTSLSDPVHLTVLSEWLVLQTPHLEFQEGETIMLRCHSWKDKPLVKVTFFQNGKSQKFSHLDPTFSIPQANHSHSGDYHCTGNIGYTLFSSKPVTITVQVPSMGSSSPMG

T3: FcγRIIb, extracellular domain with C-terminal His tag (human, UniProt P31994 43-217)
T3 construct: extracellular domain; also called 2b; FcgRIIb; not shown: His tag at the C terminus
T3 sequence (looked up): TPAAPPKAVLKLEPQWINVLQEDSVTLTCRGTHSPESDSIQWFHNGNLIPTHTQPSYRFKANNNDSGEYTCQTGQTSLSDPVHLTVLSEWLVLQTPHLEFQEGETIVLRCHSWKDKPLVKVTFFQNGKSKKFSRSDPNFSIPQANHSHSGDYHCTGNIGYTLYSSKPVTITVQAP


What was measured:
[1] = biological target: T4, FcγRIIIa extracellular domain with C-terminal His tag (human, UniProt P08637 17-208); assay: SPR, binding relative to GpH7-A5/GpH7-B3/GpL16-k0 = 100
T4 construct: extracellular domain; also called 3a; FcgRIIIa
T4 sequence (P08637 17-208): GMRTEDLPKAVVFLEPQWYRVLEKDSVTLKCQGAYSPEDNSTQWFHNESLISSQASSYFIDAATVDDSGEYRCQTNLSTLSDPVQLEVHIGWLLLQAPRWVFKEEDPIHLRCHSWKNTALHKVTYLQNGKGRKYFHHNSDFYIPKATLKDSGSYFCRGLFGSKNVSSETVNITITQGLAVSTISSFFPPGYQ
Procedure: (§1) The heterodimerized antibodies He Abs in which one of the H chains was introduced with an alteration were assayed for their binding activities to each activating FcγR and inhibitory FcγR according to the method described in Example 4. […] The activating FcγRs in FIGS. 26, 27, 28, and 29 are FcγRIa, FcγRIIa (R), FcγRIIa (H), and FcγRIIIa, respectively.
(§2) Analysis of interaction between objective antibody and the FcγR was carried out using Biacore T100 (GE Healthcare). HBS-EP+ (GE Healthcare) was used as the running buffer, and the measurement temperature was set to 25° C. Chips produced by immobilizing the antigen peptide by the amine coupling method to a Series S Sencor Chip CM5 (GE Healthcare), or alternatively, chips produced by allowing preliminarily biotinylated antigen peptides to interact with and immobilize onto a Series S Sensor Chip SA (certified) (GE Healthcare) were used. Antibodies of interest were captured onto an antigen peptide-immobilized chip, and allowed to interact to each FcγR diluted with running buffer. To regenerate and repeatedly use the chip, the antibodies captured on the chip were washed off by reacting 10 mM glycine-HCl, pH 1.5.

[2] = biological target: T1, FcγRIIb extracellular domain with …; assay: as above
Procedure: as §1, §2

[3] = biological target: T2, FcγRIIa H (FcgRIIa type H, His at …); assay: SPR (Biacore), relative binding, GpH7-A5/GpH7-B3/GpL16-k0 = 100
[4] = biological target: T3, FcγRIIb, extracellular domain with …; assay: as above

Binder	He/Con_3a [1]	He/Con_2b [2]	He/Con_2aH [3]	He/Con_2b [4]
GpH7-A5/GpH7-B3 variant S298_14T/GpL16-k0 (antibody, human IgG1, kappa, also called He Ab) heavy 1: not shown heavy 2: not shown light: DIVMTQSPLSLPVTPGEPASISCQASESLVHSNRNTYLHWYLQKPGQSPQLLIYKVSNRFSGVPDRFSGSGSGTDFTLKISRVEAEDVGVYYCSQNTHVPPTFGQGTKVEIERTVAAPSVFIFPPSDEQLKSGTASVVCLLNNFYPREAKVQWKVDNALQSGNSQESVTEQDSKDSTYSLSSTLTLSKADYEKHKVYACEVTHQGLSSPVTKSFNRGEC	113 % of control	77.9 % of control	–	–
GpH7-A5/GpH7-B3 variant A327_10E/GpL16-k0 (antibody, human IgG1, kappa, He Ab; alteration in one H chain only; also called He Ab) heavy 1: not shown heavy 2: not shown light: DIVMTQSPLSLPVTPGEPASISCQASESLVHSNRNTYLHWYLQKPGQSPQLLIYKVSNRFSGVPDRFSGSGSGTDFTLKISRVEAEDVGVYYCSQNTHVPPTFGQGTKVEIERTVAAPSVFIFPPSDEQLKSGTASVVCLLNNFYPREAKVQWKVDNALQSGNSQESVTEQDSKDSTYSLSSTLTLSKADYEKHKVYACEVTHQGLSSPVTKSFNRGEC	–	–	91.3 % of control	140 % of control
GpH7-A5/GpH7-B3 variant S324_02A/GpL16-k0 (antibody, human IgG1, kappa, also called He Ab) heavy 1: not shown heavy 2: not shown light: DIVMTQSPLSLPVTPGEPASISCQASESLVHSNRNTYLHWYLQKPGQSPQLLIYKVSNRFSGVPDRFSGSGSGTDFTLKISRVEAEDVGVYYCSQNTHVPPTFGQGTKVEIERTVAAPSVFIFPPSDEQLKSGTASVVCLLNNFYPREAKVQWKVDNALQSGNSQESVTEQDSKDSTYSLSSTLTLSKADYEKHKVYACEVTHQGLSSPVTKSFNRGEC	104 % of control	78.3 % of control	–	–
GpH7-A5/GpH7-B3 variant S324_09D/GpL16-k0 (antibody, human IgG1, kappa, also called He Ab) heavy 1: not shown heavy 2: not shown light: DIVMTQSPLSLPVTPGEPASISCQASESLVHSNRNTYLHWYLQKPGQSPQLLIYKVSNRFSGVPDRFSGSGSGTDFTLKISRVEAEDVGVYYCSQNTHVPPTFGQGTKVEIERTVAAPSVFIFPPSDEQLKSGTASVVCLLNNFYPREAKVQWKVDNALQSGNSQESVTEQDSKDSTYSLSSTLTLSKADYEKHKVYACEVTHQGLSSPVTKSFNRGEC	101 % of control	85.8 % of control	–	–
GpH7-A5/GpH7-B3 variant S324_01G/GpL16-k0 (antibody, human IgG1, kappa, also called He Ab) heavy 1: not shown heavy 2: not shown light: DIVMTQSPLSLPVTPGEPASISCQASESLVHSNRNTYLHWYLQKPGQSPQLLIYKVSNRFSGVPDRFSGSGSGTDFTLKISRVEAEDVGVYYCSQNTHVPPTFGQGTKVEIERTVAAPSVFIFPPSDEQLKSGTASVVCLLNNFYPREAKVQWKVDNALQSGNSQESVTEQDSKDSTYSLSSTLTLSKADYEKHKVYACEVTHQGLSSPVTKSFNRGEC	105 % of control	81.1 % of control	–	–
GpH7-A5/GpH7-B3 variant A327_18N/GpL16-k0 (antibody, human IgG1, kappa, He Ab; alteration in one H chain only; also called He Ab) heavy 1: not shown heavy 2: not shown light: DIVMTQSPLSLPVTPGEPASISCQASESLVHSNRNTYLHWYLQKPGQSPQLLIYKVSNRFSGVPDRFSGSGSGTDFTLKISRVEAEDVGVYYCSQNTHVPPTFGQGTKVEIERTVAAPSVFIFPPSDEQLKSGTASVVCLLNNFYPREAKVQWKVDNALQSGNSQESVTEQDSKDSTYSLSSTLTLSKADYEKHKVYACEVTHQGLSSPVTKSFNRGEC	–	–	66.8 % of control	113 % of control
GpH7-A5/GpH7-B3 variant A327_01G/GpL16-k0 (antibody, human IgG1, kappa, He Ab; alteration in one H chain only; also called He Ab) heavy 1: not shown heavy 2: not shown light: DIVMTQSPLSLPVTPGEPASISCQASESLVHSNRNTYLHWYLQKPGQSPQLLIYKVSNRFSGVPDRFSGSGSGTDFTLKISRVEAEDVGVYYCSQNTHVPPTFGQGTKVEIERTVAAPSVFIFPPSDEQLKSGTASVVCLLNNFYPREAKVQWKVDNALQSGNSQESVTEQDSKDSTYSLSSTLTLSKADYEKHKVYACEVTHQGLSSPVTKSFNRGEC	–	–	97.2 % of control	116 % of control
GpH7-A5/GpH7-B3 variant A327_07I/GpL16-k0 (antibody, human IgG1, kappa, He Ab; alteration in one H chain only; also called He Ab) heavy 1: not shown heavy 2: not shown light: DIVMTQSPLSLPVTPGEPASISCQASESLVHSNRNTYLHWYLQKPGQSPQLLIYKVSNRFSGVPDRFSGSGSGTDFTLKISRVEAEDVGVYYCSQNTHVPPTFGQGTKVEIERTVAAPSVFIFPPSDEQLKSGTASVVCLLNNFYPREAKVQWKVDNALQSGNSQESVTEQDSKDSTYSLSSTLTLSKADYEKHKVYACEVTHQGLSSPVTKSFNRGEC	–	–	58.4 % of control	127 % of control

Continued, values first:

He/Con_3a [1]	He/Con_2b [2]	He/Con_2aH [3]	He/Con_2b [4]	Binder
101 % of control	97.8 % of control	–	–	GpH7-A5/GpH7-B3 variant S337_04F/GpL16-k0 (antibody, human IgG1, kappa, also called He Ab) heavy 1: not shown heavy 2: not shown light: DIVMTQSPLSLPVTPGEPASISCQASESLVHSNRNTYLHWYLQKPGQSPQLLIYKVSNRFSGVPDRFSGSGSGTDFTLKISRVEAEDVGVYYCSQNTHVPPTFGQGTKVEIERTVAAPSVFIFPPSDEQLKSGTASVVCLLNNFYPREAKVQWKVDNALQSGNSQESVTEQDSKDSTYSLSSTLTLSKADYEKHKVYACEVTHQGLSSPVTKSFNRGEC
105 % of control	73.6 % of control	–	–	GpH7-A5/GpH7-B3 variant Y300_08L/GpL16-k0 (antibody, human IgG1, kappa, also called He Ab) heavy 1: not shown heavy 2: not shown light: DIVMTQSPLSLPVTPGEPASISCQASESLVHSNRNTYLHWYLQKPGQSPQLLIYKVSNRFSGVPDRFSGSGSGTDFTLKISRVEAEDVGVYYCSQNTHVPPTFGQGTKVEIERTVAAPSVFIFPPSDEQLKSGTASVVCLLNNFYPREAKVQWKVDNALQSGNSQESVTEQDSKDSTYSLSSTLTLSKADYEKHKVYACEVTHQGLSSPVTKSFNRGEC
105 % of control	99.9 % of control	–	–	GpH7-A5/GpH7-B3 variant T335_05P/GpL16-k0 (antibody, human IgG1, kappa, also called He Ab) heavy 1: not shown heavy 2: not shown light: DIVMTQSPLSLPVTPGEPASISCQASESLVHSNRNTYLHWYLQKPGQSPQLLIYKVSNRFSGVPDRFSGSGSGTDFTLKISRVEAEDVGVYYCSQNTHVPPTFGQGTKVEIERTVAAPSVFIFPPSDEQLKSGTASVVCLLNNFYPREAKVQWKVDNALQSGNSQESVTEQDSKDSTYSLSSTLTLSKADYEKHKVYACEVTHQGLSSPVTKSFNRGEC
102 % of control	92 % of control	–	–	GpH7-A5/GpH7-B3 variant S337_01G/GpL16-k0 (antibody, human IgG1, kappa, also called He Ab) heavy 1: not shown heavy 2: not shown light: DIVMTQSPLSLPVTPGEPASISCQASESLVHSNRNTYLHWYLQKPGQSPQLLIYKVSNRFSGVPDRFSGSGSGTDFTLKISRVEAEDVGVYYCSQNTHVPPTFGQGTKVEIERTVAAPSVFIFPPSDEQLKSGTASVVCLLNNFYPREAKVQWKVDNALQSGNSQESVTEQDSKDSTYSLSSTLTLSKADYEKHKVYACEVTHQGLSSPVTKSFNRGEC
102 % of control	87.5 % of control	–	–	GpH7-A5/GpH7-B3 variant S324_20W/GpL16-k0 (antibody, human IgG1, kappa, also called He Ab) heavy 1: not shown heavy 2: not shown light: DIVMTQSPLSLPVTPGEPASISCQASESLVHSNRNTYLHWYLQKPGQSPQLLIYKVSNRFSGVPDRFSGSGSGTDFTLKISRVEAEDVGVYYCSQNTHVPPTFGQGTKVEIERTVAAPSVFIFPPSDEQLKSGTASVVCLLNNFYPREAKVQWKVDNALQSGNSQESVTEQDSKDSTYSLSSTLTLSKADYEKHKVYACEVTHQGLSSPVTKSFNRGEC
102 % of control	99.4 % of control	–	–	GpH7-A5/GpH7-B3 variant T335_06M/GpL16-k0 (antibody, human IgG1, kappa, also called He Ab) heavy 1: not shown heavy 2: not shown light: DIVMTQSPLSLPVTPGEPASISCQASESLVHSNRNTYLHWYLQKPGQSPQLLIYKVSNRFSGVPDRFSGSGSGTDFTLKISRVEAEDVGVYYCSQNTHVPPTFGQGTKVEIERTVAAPSVFIFPPSDEQLKSGTASVVCLLNNFYPREAKVQWKVDNALQSGNSQESVTEQDSKDSTYSLSSTLTLSKADYEKHKVYACEVTHQGLSSPVTKSFNRGEC
103 % of control	88.4 % of control	–	–	GpH7-A5/GpH7-B3 variant S324_14T/GpL16-k0 (antibody, human IgG1, kappa, also called He Ab) heavy 1: not shown heavy 2: not shown light: DIVMTQSPLSLPVTPGEPASISCQASESLVHSNRNTYLHWYLQKPGQSPQLLIYKVSNRFSGVPDRFSGSGSGTDFTLKISRVEAEDVGVYYCSQNTHVPPTFGQGTKVEIERTVAAPSVFIFPPSDEQLKSGTASVVCLLNNFYPREAKVQWKVDNALQSGNSQESVTEQDSKDSTYSLSSTLTLSKADYEKHKVYACEVTHQGLSSPVTKSFNRGEC
101 % of control	88.2 % of control	–	–	GpH7-A5/GpH7-B3 variant S324_15Y/GpL16-k0 (antibody, human IgG1, kappa, also called He Ab) heavy 1: not shown heavy 2: not shown light: DIVMTQSPLSLPVTPGEPASISCQASESLVHSNRNTYLHWYLQKPGQSPQLLIYKVSNRFSGVPDRFSGSGSGTDFTLKISRVEAEDVGVYYCSQNTHVPPTFGQGTKVEIERTVAAPSVFIFPPSDEQLKSGTASVVCLLNNFYPREAKVQWKVDNALQSGNSQESVTEQDSKDSTYSLSSTLTLSKADYEKHKVYACEVTHQGLSSPVTKSFNRGEC
104 % of control	83.5 % of control	–	–	GpH7-A5/GpH7-B3 variant S324_16H/GpL16-k0 (antibody, human IgG1, kappa, also called He Ab) heavy 1: not shown heavy 2: not shown light: DIVMTQSPLSLPVTPGEPASISCQASESLVHSNRNTYLHWYLQKPGQSPQLLIYKVSNRFSGVPDRFSGSGSGTDFTLKISRVEAEDVGVYYCSQNTHVPPTFGQGTKVEIERTVAAPSVFIFPPSDEQLKSGTASVVCLLNNFYPREAKVQWKVDNALQSGNSQESVTEQDSKDSTYSLSSTLTLSKADYEKHKVYACEVTHQGLSSPVTKSFNRGEC
